Experimental data as given in paper PMC12071194.

Tests used:
mCherry-BNIP3 (WT) = assay: immunoblot for dimers; immunoblot analysis of WT or OMP25C hybrids of BNIP3 and NIX expressed in B/N DKO cells
mCherry-NIX (WT) = mCherry-NIX (WT) (UniProt O60238); assay: as above

mCherry-NIX (WT), O60238 1-219 (natural protein; other documents disagree on this pair), sequence (O60238 whole entry): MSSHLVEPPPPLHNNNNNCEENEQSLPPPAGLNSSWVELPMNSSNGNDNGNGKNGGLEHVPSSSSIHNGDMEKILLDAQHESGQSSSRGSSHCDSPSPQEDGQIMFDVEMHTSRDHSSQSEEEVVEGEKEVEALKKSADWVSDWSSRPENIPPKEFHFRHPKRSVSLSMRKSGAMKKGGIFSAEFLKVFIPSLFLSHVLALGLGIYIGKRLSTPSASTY
mCherry-BNIP3 (WT) (natural protein), sequence (Q12983 whole entry): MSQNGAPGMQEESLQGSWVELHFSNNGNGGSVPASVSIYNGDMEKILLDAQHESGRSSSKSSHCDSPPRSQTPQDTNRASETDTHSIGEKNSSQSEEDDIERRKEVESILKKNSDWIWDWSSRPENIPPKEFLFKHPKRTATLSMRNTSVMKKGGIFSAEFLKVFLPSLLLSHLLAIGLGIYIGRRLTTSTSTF

| Substance | stoichiometry N (mCherry-BNIP3 (WT)) | stoichiometry N (mCherry-NIX (WT)) |
| --- | --- | --- |
| mCherry-BNIP3 (WT) (natural protein) | 2 |  |
| mCherry-NIX (WT), O60238 1-219 (natural protein; other documents disagree on this pair) |  | 2 |
